13 molecules from US20240059769A1 (BIOLOJIC DESIGN, published 2024) can be followed below.

Positions count from the first letter of the chain named.

A word on the Kd: it is the free concentration of one partner at which half of the binding sites on the other are occupied at equilibrium, for simple one-to-one binding. For orientation: koff means a measure of how fast the partners let go of each other. As a reminder, the kon is the rate constant with which the complex forms. The IC50 is the concentration needed to halve the response being measured.

First the molecules themselves.
B1: BDG38.125 (antibody, V domains shown)
VH: QMQLVESGGGVVQPGRSLRLSCAASGFEFRTYGMHWVRQAPGKGLEWVAVIWDDGSNTHYADSVKGRFTITRDNSKNTLNLQMNSLRAEDTAVYYCVRAPQWYLTAEAFDLWGQGTMVTVSS
VL: SYVLTQPPSVSVAPGETATITCGGNLIGARLVHWYQQKPGQAPVLVIYDDSDRPSRIPERFSGSNIGNTATLTIERVEEGDEADYYCQVWDYSSDHMVFGGGTKLTVL
notes: IgG1
B2: BDG38.140 (antibody, V domains shown)
VH: B1 VH with R19T, A49G, A88V, V97A
VL: B1 VL with V3I, R30K, R76D, E79A, S94A, D95N
notes: IgG1
B3: BDG38.117 (antibody, V domains shown)
VH: B1 VH with R19T, A49G, V97A
VL: B1 VL with R30K, R76D, E79A, H96T
notes: IgG1
B4: BDG38.139 (antibody, V domains shown)
VH: B1 VH with E28A, T105S
VL: B1 VL with L26M, R30Y, V44L, S51V, S55A, I66S, E75S, E79A, Y92H, S93N
notes: IgG1
B5: BDG38.129 (antibody, V domains shown)
VH: B1 VH with R19T, A49G, A88V, V97A
VL: B1 VL with V3I, E16Q, R30K, E75S, R76D
notes: IgG1
B6: BDG38.128 (antibody, V domains shown)
VH: B1 VH with R19T, A88V
VL: B1 VL with V3I, R30K, I66S, E75S, R76D, S93Y, S94A, H96T
notes: IgG1
B7: BDG38.106 (antibody, V domains shown)
VH: B1 VH with R19T, H59V, A88V
VL: B1 VL with V3I, E16Q, A29S, R76D, Y92H, S93Y
notes: IgG1
B8: BDG38.131 (antibody, V domains shown)
VH: B1 VH with R19T
VL: B1 VL with V3I, R30K, E75S, R76D, S93Y, D95N, H96T
notes: IgG1
B9: BDG38.134 (antibody, V domains shown)
VH: B1 VH with R16Q, V48L, D53Y, L104N, T105S
VL: B1 VL with E16Q, T19R, R56H, I66S, E75S, E79A, S94A, H96T
notes: IgG1
B10: BDG38.115 (antibody, V domains shown)
VH: B1 VH with R19T, V48L, A49G, D53Y
VL: B1 VL with V3I, E16Q, I66S, E75S, R76D, D95N, H96T, M97Y
notes: IgG1
B11: BDG38.118 (antibody, V domains shown)
VH: B1 VH with A49G, D53Y, N57A, A88V
VL: B1 VL with V3I, E75S, R76D, M97Y
notes: IgG1
B12: BDG38.127 (antibody, V domains shown)
VH: B1 VH with R19T, A49G, D53Y, N57A, V97A
VL: B1 VL with V3I, R30K, E75S, R76D, E79A, S93Y, H96T, M97Y
notes: IgG1
B13: BDG38.110 (antibody, V domains shown)
VH: B1 VH
VL: B1 VL with V3I, A18T, T19R, R30K, R76D, E79A, D95N
notes: IgG1

T4 sequence (A0A7N9CAT7 entry or part of it): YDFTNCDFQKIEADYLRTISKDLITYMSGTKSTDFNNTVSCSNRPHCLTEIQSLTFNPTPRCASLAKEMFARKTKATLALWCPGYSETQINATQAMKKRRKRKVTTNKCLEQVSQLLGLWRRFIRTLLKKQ
T1 sequence (Q0PW92 entry or part of it): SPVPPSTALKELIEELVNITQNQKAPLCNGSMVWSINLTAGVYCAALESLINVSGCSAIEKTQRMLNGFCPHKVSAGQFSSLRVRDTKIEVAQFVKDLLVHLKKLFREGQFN
T3 sequence (P35225 35-146 limits assumed): as the sequence (Q0PW92 entry or part of it) above, with S1G, K10R, V42M, N67S, R83H, V100L counted along it

The first test addresses T1, recombinant cynomolgus monkey IL-13 (cynomolgus monkey, UniProt Q0PW92 21-132).
T1 construct: bought; also called rc-IL-13; cIL-13
Briefly: SPR.
Regarding B1, the equilibrium dissociation constant (Kd) is 38.9 pM, the koff amounted to 0.00135 s⁻¹ and the kon came to 3.46e+07 M⁻¹ s⁻¹.
The matching figures for B2: 23.8 pM, 0.00131 s⁻¹ and 5.54e+07 M⁻¹ s⁻¹.
The matching figures for B3: 36.7 pM, 0.00144 s⁻¹ and 3.94e+07 M⁻¹ s⁻¹.
As for B4, the Kd turned out to be 339 pM, the koff is 0.0077 s⁻¹ and the kon came to 2.27e+07 M⁻¹ s⁻¹.
Turning to B5, the Kd was found to be 23.1 pM, the koff was 0.0014 s⁻¹ and the kon is 6.05e+07 M⁻¹ s⁻¹.
The matching figures for B6: 102 pM, 0.00309 s⁻¹ and 3.02e+07 M⁻¹ s⁻¹.

A further test deals with T2, hTSLP-His (human, UniProt Q969D9 29-159, limits assumed).
T2 construct: bought; also called hTSLP (ACROBiosystems TSP-H52Hb); not shown: His tag
Briefly: competition ELISA, 7 nM TSLP-His pre-incubated with antibody; competitor Tezepelumab coated. For orientation: In an ELISA, binding on a coated surface is turned into a signal by an enzyme label.
As to B7, the IC50 came to 10100 pM.
As for B1, the IC50 is 8440 pM.
The same measure, in the same setting: the result for B2 reads 5630 pM.
The same measure, in the same setting: next, B3: 6140 pM; B4: 9570 pM.
Same read-out and setting: the result for B5 reads 5490 pM; that for B6, 5380 pM.

The next test has as its target T3, recombinant human IL-13 (human, UniProt P35225 35-146). Briefly: cell-based or functional assay.
In the case of B7, the “IC50 CD23” value stood at 162 pM.
B1: the “IC50 CD23” value worked out at 52.7 pM.
Regarding B2, the “IC50 CD23” value was determined as 146 pM.
Still for that read-out and setting: the result for B8 reads 70 pM; that for B3, 121 pM; that for B4, 12 pM.
Still for that read-out and setting: the result for B5 reads 29 pM; that for B6, 14.9 pM.

Another test addresses T4, cynomolgus monkey (cyno) TSLP (cynomolgus monkey, UniProt A0A7N9CAT7 29-159).
T4 construct: also called cTSLP; cynomolgus TSLP
Briefly: SPR. (In general: Surface plasmon resonance follows binding to a sensor surface in real time, without labels.)
B1 came in with a Kd of 45.2 pM, a koff of 0.000119 s⁻¹ and a kon of 2.64e+06 M⁻¹ s⁻¹.
On the same counts, the results for B2 are 0.614 pM, 2.78e-06 s⁻¹ and 4.53e+06 M⁻¹ s⁻¹.
The matching figures for B3: 8.9 pM, 0.000452 s⁻¹ and 5.08e+07 M⁻¹ s⁻¹.
On the same counts, the results for B4 are 2.39 pM, 1.55e-05 s⁻¹ and 6.5e+06 M⁻¹ s⁻¹.
As to B5, the Kd came out at 14.1 pM, the koff worked out at 5.27e-05 s⁻¹ and the kon is 3.75e+06 M⁻¹ s⁻¹.
On the same counts, the results for B6 are 0.0492 pM, 7.62e-08 s⁻¹ and 1.55e+06 M⁻¹ s⁻¹.

For another test, the target named is T2, hTSLP-His. Briefly: cell-based or functional assay.
Take B9: the “IC50 [pM], STAT5 phosphorylation inhibition in MUTZ5 cells” value turned out to be 32 pM.
The same measure, in the same setting: the result for B2 reads 2.21 pM; that for B10, 300 pM; that for B3, 0.363 pM.
Same read-out and setting: the result for B4 reads 89 pM.
Consider B5, for which the “IC50 [pM], STAT5 phosphorylation inhibition in MUTZ5 cells” value was 0.676 pM.
On the same count and under the same terms, next, B11: 0.688 pM; B12: 0.143 pM.
Still for that read-out and setting: next, B6: 0.0048 pM.
The same measure, in the same setting: the result for B13 reads 0.295 pM.

Another test concerns the target T3, recombinant human IL-13. Briefly: SPR.
On to B1, for which the equilibrium dissociation constant (Kd) was 7.78 pM, the koff turned out to be 4.76e-05 s⁻¹ and the kon stood at 6.12e+06 M⁻¹ s⁻¹.
On the same counts, the results for B9 are 507 pM, 0.00156 s⁻¹ and 3.07e+06 M⁻¹ s⁻¹.
On the same counts, the results for B2 are 34.4 pM, 0.000168 s⁻¹ and 4.88e+06 M⁻¹ s⁻¹.
On the same counts, the results for B8 are 179 pM, 0.000356 s⁻¹ and 2e+06 M⁻¹ s⁻¹.
As to B4, the equilibrium dissociation constant (Kd) amounted to 27.5 pM, the koff is 0.000212 s⁻¹ and the on-rate constant (kon) worked out at 7.71e+06 M⁻¹ s⁻¹.
The matching figures for B5: 16.7 pM, 0.000116 s⁻¹ and 6.96e+06 M⁻¹ s⁻¹.
Regarding B11, the Kd amounted to 15.7 pM, the koff was determined as 6.7e-05 s⁻¹ and the on-rate (kon) was determined as 4.27e+06 M⁻¹ s⁻¹.
Consider B12, for which the Kd was 8.47 pM, the off-rate constant (koff) is 5.01e-05 s⁻¹ and the kon was 5.91e+06 M⁻¹ s⁻¹.
The matching figures for B6: 32.1 pM, 0.000176 s⁻¹ and 5.49e+06 M⁻¹ s⁻¹.

A further test deals with T5, human TSLP (human, UniProt Q969D9 29-159).
T5 construct: also called hTSLP; rhTSLP
Briefly: SPR.
B1 had a Kd of 25.5 pM, a koff of 0.000121 s⁻¹ and a kon of 4.76e+06 M⁻¹ s⁻¹.
The matching figures for B9: 8.58 pM, 4.17e-05 s⁻¹ and 4.86e+06 M⁻¹ s⁻¹.
The matching figures for B2: 8.27 pM, 2.79e-05 s⁻¹ and 3.38e+06 M⁻¹ s⁻¹.
On the same counts, the results for B8 are 0.0746 pM, 2.85e-07 s⁻¹ and 3.82e+06 M⁻¹ s⁻¹.
Turning to B4, the Kd was found to be 3.27 pM, the koff was found to be 2.54e-05 s⁻¹ and the kon was determined as 7.78e+06 M⁻¹ s⁻¹.
On the same counts, the results for B5 are 22.6 pM, 9.12e-05 s⁻¹ and 4.03e+06 M⁻¹ s⁻¹.
The matching figures for B11: 964 pM, 0.00043 s⁻¹ and 446000 M⁻¹ s⁻¹.
On the same counts, the results for B12 are 991 pM, 0.000427 s⁻¹ and 431000 M⁻¹ s⁻¹.
For B6, the Kd amounted to 9.07 pM, the koff turned out to be 3.86e-05 s⁻¹ and the kon came out at 4.25e+06 M⁻¹ s⁻¹.

The next test deals with T3, recombinant human IL-13. Briefly: SPR. This is another data set of the same source.
B7: the Kd was determined as 34.6 pM, the koff was determined as 0.000205 s⁻¹ and the kon came out at 5.93e+06 M⁻¹ s⁻¹.
On the same counts, the results for B10 are 125 pM, 0.000455 s⁻¹ and 3.63e+06 M⁻¹ s⁻¹.
B3: the Kd was 14.9 pM, the koff was determined as 0.000103 s⁻¹ and the kon was 6.94e+06 M⁻¹ s⁻¹.
On the same counts, the results for B13 are 74.2 pM, 0.000427 s⁻¹ and 5.75e+06 M⁻¹ s⁻¹.

Another test concerns the target T5, human TSLP. Briefly: SPR. This is another data set of the same source.
The molecule B7 came in with a dissociation constant Kd of 52.5 pM, a koff of 0.000257 s⁻¹ and a kon of 4.9e+06 M⁻¹ s⁻¹.
On to B10, for which the Kd was 840 pM, the koff came out at 0.000532 s⁻¹ and the on-rate constant (kon) came to 634000 M⁻¹ s⁻¹.
On the same counts, the results for B3 are 3.82 pM, 2.7e-05 s⁻¹ and 7.07e+06 M⁻¹ s⁻¹.
On the same counts, the results for B13 are 129 pM, 0.000298 s⁻¹ and 2.31e+06 M⁻¹ s⁻¹.

For another test, the target named is T3, recombinant human IL-13. Briefly: cell-based or functional assay. This is another data set of the same source.
On to B7, for which the “HEK-IL-13 [nM] (IC50, STAT6 reporter)” value came out at 0.0113 nM.
As to B1, the “HEK-IL-13 [nM] (IC50, STAT6 reporter)” value was found to be 0.0562 nM.
On the same count and under the same terms, the result for B9 reads 0.271 nM.
Still for that read-out and setting: next, B2: 0.043 nM.
Take B10: the “HEK-IL-13 [nM] (IC50, STAT6 reporter)” value was determined as 0.0664 nM.
Still for that read-out and setting: next, B8: 0.0443 nM; B3: 0.0801 nM.
Still for that read-out and setting: the result for B4 reads 0.0464 nM; that for B5, 0.0725 nM.
The same measure, in the same setting: the result for B11 reads 0.0804 nM; that for B12, 0.044 nM; that for B6, 0.0523 nM.
As to B13, the “HEK-IL-13 [nM] (IC50, STAT6 reporter)” value turned out to be 0.0299 nM.
